# In PMC4388636:
# What was measured:
# [1] = target: toll like receptor-4 (human (endogenous in monocytes)) (UniProt O00206)
# [2] = target: toll like receptor-4 (human (endogenous in monocytes)) (UniProt O00206); remark: listed apart in the source
# [3] = target: toll like receptor-4 (human (endogenous in monocytes)) (UniProt O00206); remark: listed apart in the source
# [4] = target: toll like receptor-4 (human (endogenous in monocytes)) (UniProt O00206); remark: listed apart in the source
# UniProt O00206, sequence (O00206 24-839): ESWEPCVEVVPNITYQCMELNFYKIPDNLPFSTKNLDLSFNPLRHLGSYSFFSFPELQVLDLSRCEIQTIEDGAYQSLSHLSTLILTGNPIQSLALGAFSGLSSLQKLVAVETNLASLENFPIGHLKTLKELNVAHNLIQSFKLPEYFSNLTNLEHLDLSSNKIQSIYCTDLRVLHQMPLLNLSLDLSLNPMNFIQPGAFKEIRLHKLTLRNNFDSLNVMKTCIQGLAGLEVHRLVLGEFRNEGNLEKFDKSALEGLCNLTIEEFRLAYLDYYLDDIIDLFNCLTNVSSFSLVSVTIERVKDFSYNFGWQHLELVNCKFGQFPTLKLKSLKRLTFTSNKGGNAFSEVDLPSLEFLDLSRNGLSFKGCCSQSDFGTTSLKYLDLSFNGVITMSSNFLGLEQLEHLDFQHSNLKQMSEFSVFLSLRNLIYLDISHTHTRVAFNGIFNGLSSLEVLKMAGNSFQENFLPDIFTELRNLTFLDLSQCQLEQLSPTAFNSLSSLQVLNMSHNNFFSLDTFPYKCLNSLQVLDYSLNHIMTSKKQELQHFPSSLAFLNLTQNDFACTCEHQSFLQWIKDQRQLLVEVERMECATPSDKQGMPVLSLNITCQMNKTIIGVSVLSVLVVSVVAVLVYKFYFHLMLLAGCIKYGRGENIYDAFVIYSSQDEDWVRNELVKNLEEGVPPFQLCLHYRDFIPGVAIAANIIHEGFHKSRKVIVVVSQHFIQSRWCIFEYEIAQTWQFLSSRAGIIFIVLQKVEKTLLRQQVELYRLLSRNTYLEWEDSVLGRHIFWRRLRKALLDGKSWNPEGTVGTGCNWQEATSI
binder,measurement,setting,value
recombinant Wolbachia heat shock protein 60 (natural protein) MTNVVVSGEQLQEAFREVAVMVDSTVAITAGPRGKTVGINKPYGAPEITKDGYKVMKGIKPEKPLHAAITSIFAQSCFQCNDKVGDGTTTCSILTSNMIMEALKSIAAGNDRVSIKNGMQKAKDAVLEGITSMSRTIPLEKMDEVAQVAIISANGDKDIGNSIADAVKKVGKEGVITVEESKGSKELEVELTTGMQFDRGYLSPYFITSNEKMIVEFDDPYLLITEKKLSIIQPLLPILEAVVKSGKPLLIIAEDIEGEALSTLVINKLRGGLKVTAVKAPGFGDRRKEMLEDIAALTGAKYVIKDELGIKMEDLTLEDLGTAKNVKVTKDNTTIVSGSSDSDRVKARVEQIKSQIETSTSDYDKEKLRERLAKLSGGVAVLKVGGVTEVEVKERRDRVEDALHATRAAIEEGIVPGGGVALLYASSALDKLKGGSDEEQIGINIIKKVLSAPIKRLVKNAGLESAVIIDHLTKQNDKELIYNVEAMNYANAFTAGVIDPAKVVRIAFETAISVASVLITTESMIVDVPNKEENASSSMGAGGMGGMNGF,"ROS levels in monocytes after rWmhsp60, fluorimetry with DCF2-DA, fold change",[1],3 fold
same,"loss of mitochondrial membrane potential in monocytes after rWmhsp60, fluorimetry with TMRE, fold change",[1],3 fold
same,dead monocytes (annexin-V-FITC-/PI+) after 24 h with rWmhsp60,[2],23%
same,"dead monocytes after rWmhsp60, with pretreatment by anti-TLR-4 monoclonal antibodies for 2 h",[2],6.5%
same,late apoptotic monocytes (annexin-V-FITC+/PI+) after 24 h with rWmhsp60,[2],18%
same,"late apoptotic monocytes after rWmhsp60, with pretreatment by anti-TLR-4 monoclonal antibodies for 2 h",[2],6%
same,"dead monocytes after rWmhsp60, with rapamycin treatment before the stimulation",[3],7.5%
same,"late apoptotic monocytes after rWmhsp60, with rapamycin treatment before the stimulation",[3],6.5%
same,SA-β-Gal–positive (senescent) monocytes after rWmhsp60,[4],78%
same,"SA-β-Gal–positive (senescent) monocytes after rWmhsp60, with rapamycin pretreatment",[4],10%
